How the values were obtained:
ITC = target: the molecule itself; assay: ITC
SEC-MALS = target: the molecule itself; assay: SEC-MALS

B1: PV 2C NΔ39 (poliovirus 2C protein lacking the amino-terminal 39 residues) (domain or fragment)
chain: ARDKLEFVTKLRQLEMLENQISTIHQSCPSQEHQEILFNNVRWLSIQSKRFAPLYAVEAKRIQKLEHTINNYIQFKSKHRIEPVCLLVHGSPGTGKSVATNLIARAIAERENTSTYSLPPDPSHFDGYKQQGVVIMDDLNQNPDGADMKLFCQMVSTVEFIPPMASLEEKGILFTSNYVLASTNSSRISPPTVAHSDALARRFAFDMDIQVMNEYSRDGKLNMAMATEMCKNCHQPANFKRCCPLVCGKAIQLMDKSSRVRYSIDQITTMIINERNRRSNIGNCMEALFQ
Kd (ITC): ~400 nM | stoichiometry N (SEC-MALS): 2
